Primed or numbered codes have the meaning given here. Where no end group is shown, it is not given here. [ ]: non-standard residue; d: D form. Ahx = NCCCCCC(=O)O; FAM″ = fluorescein
T1: CTGF, endogenous human (U251 astrocytoma cell lysate; human AD brain sections) (human, UniProt P29279 27-349, limits assumed)
T1 construct: Native protein in a cell lysate, on cells or in tissue sections; Identified by LC-MS/MS against the Uniprot database; also called CCN2; connective tissue growth factor
T1 sequence (looked up): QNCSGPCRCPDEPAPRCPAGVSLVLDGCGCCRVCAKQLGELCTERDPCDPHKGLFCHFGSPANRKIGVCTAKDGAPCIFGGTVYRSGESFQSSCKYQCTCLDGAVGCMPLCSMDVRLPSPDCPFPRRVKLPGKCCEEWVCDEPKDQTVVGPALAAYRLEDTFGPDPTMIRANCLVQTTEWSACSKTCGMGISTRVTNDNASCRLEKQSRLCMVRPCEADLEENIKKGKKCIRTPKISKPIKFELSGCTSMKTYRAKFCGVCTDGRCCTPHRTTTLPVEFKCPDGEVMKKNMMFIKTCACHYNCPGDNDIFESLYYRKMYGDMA

B1: DAG peptide (CDAGRKQKC), labelled synthetic cyclic peptide (peptide)
peptide: CDAGRKQKC-NH2
modifications: not fully specified (bridges); also: fluorescein (FAM) or biotin tag at the N-terminus, described as a cyclic peptide, ring not given here
notes: also called FAM-DAG; FAM-labeled DAG
B2: DAG-conjugated silver nanoparticles (FAM-cys-x-DAG-NH2 on AgNPs) (peptide)
peptide: {FAM″}-C[Ahx]CDAGRKQKC-NH2
modifications: also: conjugated via the added Cys thiol to maleimide-PEG on silver nanoparticles
notes: Many copies of the peptide on silver nanoparticles of about 35 nm; also called DAG-AgNP; DAG-AgNPs

Experiments:
[1] = target: T1, CTGF, endogenous human (U251 …); assay: affinity chromatography of U251 cell lysate on biotin-DAG magnetic particles, control peptide wash, elution with 1 mM free DAG, LC-MS/MS
Method: For identifying DAG binding proteins, the human glioblastoma astrocytoma cell line U251 was lysed in PBS containing 200 mM n-octyl-beta-D-glucopyranoside and protease inhibitor cocktail (Roche) as described previously with slight modifications. The clarified lysates were loaded on to Sera-Mag magnetic particles (GE Healthcare Lifesciences, USA) coated with biotin-DAG, and incubated overnight with rotation at 4° C. The magnetic beads were washed with wash buffer followed by additional washing with 0.5 mM control peptide ([…]; SEQ ID NO: 103) to remove non-specifically bound proteins. The bound proteins were eluted with 1 mM free DAG peptide. The eluted factions were pooled, their protein concentration determined by using bicinchoninic acid (BCA) protein assay (Pierce) and the samples were digested using the Filter-aided Sample Preparation (FASP) method. Finally, the digested samples were dried, desalted and subjected to LC-MS/MS analysis at the Sanford Burnham Prebys Medical Discovery Institute's Proteomics Core facility. All mass spectra were analyzed with MaxQuant™ software version 1.5.0.25. The MS/MS spectra were searched against the Uniprot™ protein sequence database (version July 2014).

[2] = target: T1, CTGF, endogenous human (U251 …); assay: DAG-AgNP binding to cultured U251 cells, fluorescence microscopy
Method: FIG. 7 is a graphical representation showing quantity of DAG-coated silver nanoparticles (DAG-AgNPs) binding to human astrocytoma U251 cells. Cultured U251 cells were incubated with DAG-AgNPs alone, in the presence of free non-labeled control peptide, or an excess of free, non-labeled DAG (both at 200 μM), for 1 hour at 37° C. Nanoparticle binding was quantified from fluorescence micrographs using ImageJ™ software. Scale bar, 20 μm.
Cell binding experiments on U251 cells and hiPSCs were with done using peptide conjugated AgNP. U251 cells were cultured in a 96-well plate. The cells were blocked with 200 μl of 10% FCS in HBSS (Hanks' Balanced Salt Solution from Gibco) for 30 min at 37° C. Following that, DAG-AgNPs (0.5 nM concentration diluted in HBSS) alone or in the presence of free non-labeled peptide (200 μM) were incubated on the cells for 1 hour at 37° C. After washing the unbound AgNP with HBSS three times, the plates were imaged with fluorescent microscopy by looking at intrinsic emission from the FAM tag on the peptide. hiPSCs were cultured in 48 well plate and similar protocol as described above was followed, with the exception that AgNP concentration for incubation was kept at 0.15 nM. Nanoparticle binding was quantified from fluorescence micrographs using ImageJ™ software.

Binder	binding result [1]	binding result [2]
B1	binds	
B2		binds

— patent publication US20210299283A1 (SANFORD BURNHAM PREBYS MEDICAL DISCOVERY INSTITUTE, published 2021)
